Numbering of substitutions follows the chain as printed.
B1: JR093 (antibody, V domains shown)
VH: QVQLVQSGAEVKKPGSSVKVSCKASGGTFSSYAISWVRQAPGQGLEWMGRIVPILNIANYAQRFQGRVTITADKSTSTAYMELSSLRSEDTAVYYCASPGSLLLGERIDELQFDYWGQGTLVTVSS
VL: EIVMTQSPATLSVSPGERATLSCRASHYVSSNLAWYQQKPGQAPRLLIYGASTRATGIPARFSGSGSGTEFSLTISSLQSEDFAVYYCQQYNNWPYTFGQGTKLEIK
B2: JR088 (antibody, V domains shown)
VH: QVQLQQSGPGLVKPSQTLSLTCAISGDSVSSDSAAWNWIRQSPSRGLEWLGRTYYRSKWSNDYEVSVKSRITINPDTSKNQFSLQLNSVTPEDTAVYYCAKQQLVLDDAFDIWGQGTMVTVSS
VL: QSALTQPRSVSGSPGQSVTISCTGTSSDVGGHNYVSWYEQHPGKAPKLMMYDVSKRPSGVPDRFSGSKSGNTASLTISGLQAEDEADYYCCSYAGSYIWVFGGGTKLTVL
B3: JR233 (antibody, V domains shown)
VH: QVQRVQSGAEVKKPGSSVKVSCKASGGTFSSYAFSWVRQAPGQGLEWMGGIIPILRIADYAQKFQGRVTITADKSTSTAFMELSSLRSEDTAVYYCARGQIELVPAARVDYFDYWGQGTLVTVSS
VL: DIQLTQSPSSLSASVGDRVTITCRASQSISSYLNWYQQKPGKAPKLLIYAASSLQSGVPSRFSGSGSGTDFTLTISSLQPEDFATYYCQQSYTTSFGPGTKVDIK
B4: JR049 (antibody, V domains shown)
VH: EVQLVESGGGLVQPGGSLRLSCAASGFTFSSYDMHWVRQVTGKGLEWVSGIGTAGDTYYRDSVKGRFTISRENAKKSLYLQMNSLRAGDTAVYYCARDNGALYYYGSGAMDVWGKGTTVTVSS
VL: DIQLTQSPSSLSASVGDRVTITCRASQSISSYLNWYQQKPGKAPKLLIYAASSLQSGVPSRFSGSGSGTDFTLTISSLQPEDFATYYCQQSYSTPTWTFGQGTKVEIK
B5: JR216 (antibody, V domains shown)
VH: QLQLQESGPGLVKPSETLSLTCTVSGGSISSGSYFWGWIRQPPGKGLEWIGNIYNSGSTYYSPSLKSRVTISVNTSKNQFSLKMSSVTAADTAVYYCARQPWLRSQFDYWGQGTLVTVSS
VL: NFMLTQPHSVSESPGKTVTISCTGSSGSIASNYVQWYQQRPGSAPTNVIYEDNQRPSGVPDRFSGSIDSSSNSASLTISGLKTEDEADYYCQSYDSSTVVFGGGTKLTVL
B6: JR210 (antibody, V domains shown)
VH: EVQLVESGGGLVQPGGSLRLSCAASGFTFSNYWMTWVRQAPGKGLEWVANIKQDGSEKYYVDSVKGRFTISRDNAKNSLYLQMNSLRAEDTAVYYCARDLAVAISWFDPWGQGTLVTVSS
VL: B5 VL with I20M, G24R, A44S, N47T, Q92H, S97P, T98R
B7: JR092 (antibody, V domains shown)
VH: QVQLVESGGGLVKPGGSLRLSCAASGFTFSDYYMSWIRQAPGKGLEWVSYSSSRGSIIHYADSVKGRFTISRDNAKNSLCLQMNSLRAEDTAVYYCARATTPYSGYSMWGQGTLVTVSS
VL: B5 VL with N47T, T98N, V99W
B8: JR090 (antibody, V domains shown)
VH: QVQLQQWGAGLLKPSETLSRTCAVYGGSFSGHYWSWIRQPPGKGLEWIGEINHSGSTNYNPSLKSRVTISVDTSKNQFSLKLSSVTAADTAVYYCARGSRAVAGTAVYFDLWGRGTLVTVSS
VL: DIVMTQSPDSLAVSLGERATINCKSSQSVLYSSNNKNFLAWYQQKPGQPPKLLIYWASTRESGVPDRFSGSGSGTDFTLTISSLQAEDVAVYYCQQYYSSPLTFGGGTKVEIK
B9: JR177 (antibody, V domains shown)
VH: QVQLVESGGGVVQPGRSLRLSCAASGFTLSSYAMHWVRQAPGKGLEWVALILYDGSNKYYADSVKGRFTISRDNSKNTVYLQMNSLRAEDTAVYYCARVRVWGRVVVAASFYYGMDVWGQGTTVTVSS
VL: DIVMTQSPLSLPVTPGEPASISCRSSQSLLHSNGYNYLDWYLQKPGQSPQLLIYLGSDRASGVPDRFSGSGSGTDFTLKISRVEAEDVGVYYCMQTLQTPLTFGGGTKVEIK
B10: JR173 (antibody, V domains shown)
VH: EVQLVESGGGLVQPGRSLRLSCAASGFTFDDYAMHWVRQAPGKGLEWVSGISWNSGRKGYADSVKGRFTISRDNAKNSLHLQMNSLRAEDTALYYCAKDIQEAIEVSSIGFDYWGQGTLVTVSS
VL: QSVLTQPPSVSGAPGQRVTISCTGSSSNIGAGYDVHWYQQLPGTAPKLLIYGNSNRPSGVPDRFSGSKSGTSASLAITGLQAEDEADYYCQSYDSSLSGYAVFGGGTQLTVL
B11: JR310 (antibody, V domains shown)
VH: EVQLVESGGGLIQPGGSLRLSCAASGFTVSSNYMSWVRQAPGKGLEWVSVIYSGGSTYYADSVKGRFTISRDNSKNTLYLQMNSLRAEDTAVYYCARGDPSDYYYYGMDVWGQGTTVTVSS
VL: B10 VL with Y100S, A101G, G105T, Q108K, L109V
B12: JR309 (antibody, V domains shown)
VH: EVQLVESGGGLVQPGRSLRLSCAASGFTFDDYAIHWVRQAPGKGLEWVSGSSWNSGTIGYADSVKGRFTISRDNAKNSLYLQMNSLRAEDTALYYCAKDWGTGDYNSYYFDYWGQGTLVTVSS
VL: SYELTQPPSVSVAPGKTARITCGGNNIGSKSVHWYQQKPGQAPVVVVYDDSDRPSGNPERFSGSNSGNTATLTIRRVEAGDEADYYCQVWDSNSDQYVFGTGTKVTVL
B13: JR174 (antibody, V domains shown)
VH: QVQLVQSGAEVKKPGSSVKVSCKASGGTFSSYAISWVRQAPGQGLEWMGGIIPIFGTAHYAQKFQGRVTITADESTSTAYMELSSLRSEDTAVYFCARDLGGIQLYLLAYWGQGTLVTVSS
VL: EIVLTQSPVTLSLSPGERATLSCRASQSVSSTYLAWYQQKPGQAPRLLIYGASSRATGIPDRFSGSGSGTDFTLTISRLEPEDFAVYYCQQYVGSPGTFGQGTKVEIK
B14: JR042 (antibody, V domains shown)
VH: EVQLVESGGGLIQPGGSLRLSCVASGVTVSSNYMSWVRQAPGKGLEWVSVIYPGGTTYYADSVKGRFTISRDNSKNTLYLQMTSLRAEDTAVYYCARGGDYHYGMDVWGQGTTVTVSS
VL: DIQLTQSPSFLSASVGDRVTITCRASQGISSYLAWYQQKPGKAPKLLIYAASTLQSGVPSRFSGSGSGTEFTLTISSLQPEDFATYYCQLLNSYPPTFGQGTKLEIK
B15: JR215 (antibody, V domains shown)
VH: QVQLVQSGAEVKKPGASVKVSCKASGYTFTGYYMHWVRQAPGQGLEWMGRINPNSGDTNFPQKFQGRVTMTRDTSISTAYMELSRLRSDDTAVYYCARDGVADFNYDYWGQGTLVTVSS
VL: LTQPASVSGSPGQSITISCTGSSSDVGSYNLVSWYQQHPGKAPKLMIYEVSRRPSGVSNRFSGSKSGNTASLTISGLQAEDEADYYCCSYAGSSTWEVLFGGGTKLTVL
B16: JR086 (antibody, V domains shown)
VH: QVQLVQSGAEVKKPGASVKVSCKASGYTFTGYYMHWVRQAPGQGLEWMGWINPISGATNYAQKFQGGVTMTRDTSISTAYMELSRLRSDDTAVYYCARVNHIVVVTAIDPIYGMDVWGQGTTVTVSS
VL: QSALTQPASVSGSPGQSITISCTGTSSDVGGYNYVSWYQQHPGKAPKLMIYEVSNRPSGVSNRFSGSKSGNTASLTISGLQAEDEADYYCSSYTSSSTLYYVFGTGTKVTVL
B17: JR041 (antibody, V domains shown)
VH: EVQLVESGGGLVQPGRSLRLSCAASGFTFDDYAMYWVRQAPGKGLEWVSGISWNSGSIGYADSVKGRFTISRDNAKNSLYLQMNSLRAEDTALYYCAKDISYHTGTIDYWGQGTLVTVSS
VL: QSALTQPASVSGSPGQSITISCTGTSSDIGGYNYVSWYQQHPGKAPKLMIYDVSNRPSGVSNRFSGSKSGNTASLTISGLQAEDEADYYCSSYTSSSTLGVGGGTKLTVL
B18: JR328 (antibody, V domains shown)
VH: EVQLVESGGGLIQPGGSLRLSCAASGVIVSRNYMSWVRQAPGKGLEWVAVIYSGGSTFYADSVKGRFTISRDDSKNTLFLQMNALRAEDTAVYYCARDGDYYGMDVWGRGTTVTVSS
VL: DIQLTQSPSFLSASVGDRVTITCRASQGISNYLAWYQQKPGTAPRLLIYAAFTLQSGVPSRFSGSGSGTEFTLTISSLQPEDFATYYCQQLNTYPGFTFGPGTKVDIK
B19: JR039 (antibody, V domains shown)
VH: QLQLQESGPGLVKPSETLSLTCTVSGGSISSSSYYWGWIRQPPGKGLEWIGSIYYSGSTYYNPSLKSRVSISVDTSKNQFSLKLSSVTAADTAVYYCARPGPAYYDRSGYYRAEYFQRWGQGTLVTVSS
VL: AIRMTQSPSSLSASVGDRVTITCQASQDISDYLSWYQQKPGKAPKLLIYDASNLETGVPSRFSGSGSGTDFTFTISSLQPEDIATYYCQQYDNLPLTFGGGTKVEIK
B20: JR212 (antibody, V domains shown)
VH: QVQLVQSGAEVKKPGSSVKVSCKASGGTFSNYAISWVRQAPGQGLEWMGGIIPLFGTTNYAQKFQGRVTITADESTSTAYMELSSLRSEDTAMYYCASYSSGYHLVTDYWGQGTLVTVSS
VL: EIVLTQSPGTLSLSPGERATLSCRASQSVTSSYLAWYQQKPGQAPRLLIYGASSRATGIPDRFSGSGSGTDFTLTISRLEPEDFAVYYCQQYGTSRTFGQGTKVEIK
B21: JR043 (antibody, V domains shown)
VH: QVQLVQSGAEVKKPGASVKVSCKASGYTFTRNYMHWVRQAPGQGLEWMGIINPSGGSTSYAQKFQGRVTMTRDTSTSTVYMELSSLRSEDTAVYYCARVDSSSWSHCDYWGQGTLVTVSS
VL: DIQLTQSPSSLSASVGDRVTITCRASQSISTYLNWYQQNPGKAPKLLIYGASNLQSGVPSRFSGSGSGTDFTLTISSLQPEDFATYYCQQSYSTLEITFGQGTRLEIK

How the values were obtained:
[1] = target: T1, SARS-CoV-2 Wuhan-Hu-1 RBD (SARS-CoV-2, Wuhan-Hu-1 (GenBank …, UniProt P0DTC2)); experiment: cell-based or functional assay
[2] = target: T1, SARS-CoV-2 Wuhan-Hu-1 RBD; experiment: BLI; conditions: both partners purified

Binder	neutralisation IC50, Wuhan-Hu-1 pseudovirus [1] [µg/mL]	binding result [2]
B1	0.131	binds
B2	0.0381	binds
B3	0.00933	binds
B4	> 1	binds
B5	0.0458	binds
B6	0.0897	binds
B7	0.109	binds
B8	> 1	binds
B9	0.00328	binds
B10	0.0166	binds
B11	0.219	binds
B12	0.0155	binds
B13	0.0798	binds
B14	0.0209	binds
B15	0.0448	binds
B16	0.0358	binds
B17	0.0547	binds
B18	0.0167	
B19	0.0219	binds
B20	0.178	binds
B21	0.00587	binds

Reference: article PMC9253517 (The Journal of Experimental Medicine, 2022)
